Test results from publication PMC11077940.
Like-named read-outs stand apart in the source and are kept apart here.

How the values were obtained:
[1] = target: ATP hydrolysis-deficient DctD, DctD_(H216R), prepared as a dephosphorylated form (d-DctD_(H216R)) (Vibrio vulnificus); test: SEC; d-DctD_(H216R) (alkaline phosphatase-treated) and d-IIA^Glc in 50 mM Tris-HCl pH 8.0, 20 mM KCl, 50 mM MgCl2, 100 mM NaCl applied to Superdex 200 Increase 10/300 GL; fractionated multimers used for the ATPase assay
[2] = target: ATP hydrolysis-deficient DctD, DctD_(H216R), prepared as a dephosphorylated form (d-DctD_(H216R)) (Vibrio vulnificus); test: as above; remark: listed apart in the source
[3] = target: phosphorylation-deficient DctD (DctD_(D57Q)) of Vibrio vulnificus (Vibrio vulnificus); test: SEC; GPC of mixtures of d-IIA^Glc and DctD_(D57Q) (20 µM each; also 5 µM + 20 µM and 20 µM + 5 µM); Superdex 200 Increase 10/300 GL, running buffer 50 mM Tris-HCl pH 8.0, 20 mM KCl, 50 mM MgCl2, 300 mM NaCl; fractions analysed by SDS-PAGE with densitometry against known amounts of each protein
[4] = target: phosphorylation-deficient DctD (DctD_(D57Q)) of Vibrio vulnificus (Vibrio vulnificus); test: SEC; GPC of recombinant DctD_(D57Q) alone; Superdex 200 Increase 10/300 GL, running buffer 50 mM Tris-HCl pH 8.0, 20 mM KCl, 50 mM MgCl2, 300 mM NaCl, 0.4 mL/min; size from a regression of standard proteins

Question: How did the stoichiometry N [1] turn out when “ATP hydrolysis-deficient DctD, DctD_(H216R), prepared as a dephosphorylated form (d-DctD_(H216R)) (natural protein)” was run?
Answer: 12

Question: What about the stoichiometry N [2] of the same substance?
Answer: 2

Question: How did the stoichiometry N [3] turn out when “dephosphorylated form of the glucose-specific enzyme IIA (d-IIA^Glc) (natural protein)” was run?
Answer: 1 molar ratio

Question: For “phosphorylation-deficient DctD (DctD_(D57Q)) of Vibrio vulnificus (natural protein)”, which stoichiometry N [4] is on record?
Answer: 2
